Source: paper PMC11502334, “Fungal glyceraldehyde 3-phosphate dehydrogenase GpdC maintains glycolytic mechanism against reactive nitrogen stress-induced damage” (Frontiers in Microbiology, 2024)

Tests used:
Assay in all cases: purified protein
Type in all cases: biochemical, Aspergillus nidulans
purified protein [1] = substrate: O=C[C@H](O)COP(=O)(O)O; settings: 30 mM sodium pyrophosphate, 10 mM potassium phosphate, pH 8.4, 25°C
purified protein [2] = substrate: NC(=O)c1ccc[n+]([C@@H]2O[C@H](COP(=O)(O)OP(=O)(O)OC[C@H]3O[C@@H](n4cnc5c(N)ncnc54)[C@H](OP(=O)(O)O)[C@@H]3O)[C@@H](O)[C@H]2O)c1; settings: GAP as co-substrate, 30 mM sodium pyrophosphate, 10 mM potassium phosphate, pH 8.4, 25°C, varied: cofactor
purified protein [3] = substrate: NC(=O)c1ccc[n+]([C@@H]2O[C@H](COP(=O)(O)OP(=O)(O)OC[C@H]3O[C@@H](n4cnc5c(N)ncnc54)[C@H](O)[C@@H]3O)[C@@H](O)[C@H]2O)c1; settings: GAP as co-substrate, 30 mM sodium pyrophosphate, 10 mM potassium phosphate, pH 8.4, 25°C, varied: cofactor
[4] = co-substrate (NAD+ or NADP+) not given

B1: rGpdC (GpdC) (Aspergillus nidulans FGSC A4) (protein)
chain: MAPSINEIPISDSPSACRVGINGFGRIGRNVLRVALARNDIQIVAINHTCTSVQDLIYLIRYDSSMGKLSPDIPIHAISETQISVNGRPIALTSERDLKKLNWAALGAEYVVECTGKFTKRELAQDHITYGGAKRVVISAPSSDSPTYVYGVNADEYRANEETRVISCASCTTNCVTPVLKVLQREFGIAQGFLTTVHAATKSQTVLDGYSKKNRRLGRSVFDNIIPTTTGAAKAIASVLPELTGKVTGASIRVPTPNVSLIDLTVSTETPTSLAEILAAFRRAAKNELAGVLSVSDEVLVSSDYLGDSHSAIVDAAACSELNPTFFKIMAWYDNEWGYSSRLLDLTRHIAHNE
notes: recombinant from synthetic E. coli codon-optimized gene, vector pET-21a (Nde I/Hind III), expressed in E. coli BL21 (DE3), HisTrap purified
Km (purified protein [1]; [4]): 290 ± 20 µM
kcat (purified protein [1]; [4]): 2.67 ± 0.333 s⁻¹
kcat/Km (purified protein [1]; [4]): 9170 ± 333 M⁻¹ s⁻¹
Km (purified protein [2]): 47 ± 2 µM
kcat (purified protein [2]): 8.83 ± 0.5 s⁻¹
kcat/Km (purified protein [2]): 183000 ± 16700 M⁻¹ s⁻¹
Km (purified protein [3]): 420 ± 20 µM
kcat (purified protein [3]): 4 ± 0.333 s⁻¹
kcat/Km (purified protein [3]): 9330 ± 333 M⁻¹ s⁻¹

B2: rGpdA (GpdA) (Aspergillus nidulans FGSC A4) (protein)
chain: MAPKVGINGFGRIGRIVFRNAIEAGTVDVVAVNDPFIETHYAAYMLKYDSQHGQFKGTIETYDEGLIVNGKKIRFHTERDPANIPWGQDGAEYIVESTGVFTTQEKASAHLKGGAKKVVISAPSADAPMFVMGVNNETYKKDIQVLSNASCTTNCLAPLAKVINDNFGIIEGLMTTVHSYTATQKVVDGPSAKDWRGGRTAATNIIPSSTGAAKAVGKVIPSLNGKLTGMAMRVPTSNVSVVDLTVRTEKAVTYDQIKDAVKKASENELKGILGYTEDDIVSTDLNGDTRSSIFDAKAGIALNSNFIKLVSWYDNEWGYSRRVVDLITYISKVDAQ
notes: recombinant from cDNA, vector pET-21a, expressed in E. coli BL21 (DE3), HisTrap purified
Km (purified protein [1]; NAD+ as co-substrate): 410 ± 90 µM
kcat (purified protein [1]; NAD+ as co-substrate): 55 ± 3.33 s⁻¹
kcat/Km (purified protein [1]; NAD+ as co-substrate): 132000 ± 40000 M⁻¹ s⁻¹
Km (purified protein [3]): 180 ± 30 µM
kcat (purified protein [3]): 85 ± 3.33 s⁻¹
kcat/Km (purified protein [3]): 467000 ± 117000 M⁻¹ s⁻¹
